In patent US20240101667A1, “METHODS FOR IDENTIFYING LILRB-BLOCKING ANTIBODIES” (THE BOARD OF REGENTS OF THE UNIVERSITY OF TEXAS SYSTEM, priority 2020, published 2024):

Key:
Type in all cases: in vivo, mouse
[1] = test system: human AML cells (CD45+/CD33+); experiment: M5 AML patient-derived xenograft in NSG mice (primary transplantation)
From the text: (FIG. 8A) Upper: Schematic of treatment. NSG mice were transplanted with monocytic AML patient peripheral blood sample (depleted red blood cells) and given IgG or #1NA. […] (FIG. 8C) The percentages of human T cells in NSG mice treated as indicated in panel a (n=8 independent mice). (FIG. 8D) Overall survival of the NSG mice treated as indicated in panel a (n=8 independent mice). (FIG. 8E) Schematic of treatment. NSG mice were transplanted with monocytic AML cells (derived from BM of NSG mice engrafted with monocytic AML patient peripheral blood samples) with treatment of IgG or anti-LILRB3 #1 LALAPG. (FIG. 8F) Flow cytometry analyses of LILRB3 expression on human AML cells in the mouse bone marrow. (FIG. 8G) The percentages of human AML cells (CD45^+/CD33^+) in NSG mice after treatment of IgG or #1NA as indicated in panel e. (n=5 independent mice). (FIG. 8H) The percentages of human T cells in NSG mice treated as indicated in panel e (n=5 independent mice). (FIG. 8I), Survival of NSG mice treated as indicated in panel e (n=5 independent mice). The data are presented as mean s.e.m, and p values were calculated by two-tailed t-test except for d and i by log-rank test.
Primary human leukemia. The primary human AML samples was obtained from the University of Texas Southwestern Medical Center. […] For primary transplantation, leukemia cells isolated from donor peripheral blood was injected into irradiated NSG mice (200 cGy), and antibody or IgG was introduced intravenously 8 days after injection. For secondary transplantation, human leukemia cells from frozen BM of NSG mice that were engrafted with patient AML cells were transplanted into sublethally-irradiated NSG recipients.

THP-1 cells = experiment: NSG mice xenografted with THP-1 cells
From the text: FIGS. 7A-N. Blocking anti-LILRB3 antibody prevents monocytic AML development. (FIG. 7A) Epitope binning of 30 high-affinity IgGs. (FIG. 7B) CFU assay of mouse MLL-AF9 AML cells in the presence of above IgGs (n=3 independent experiments). (FIG. 7C) Binding affinities of the two IgGs from bin #3. (FIG. 7D) Upper: Schematic of treatment. Lower: Percentages of GFP^+ MLL-AF9 mouse AIL cells in peripheral blood (PB), bone marrow (BM), spleen (SPL), and liver (LV) of mice transplanted with AML cells expressing B3-FL or B3delICD and injected with IgG or anti-LILRB3 #1 N297A (n=3 independent mice). (FIG. 7E) Overall survival of mice transplanted with indicated AML cells as above. (FIG. 7F) CFU assay of MLL-AF9 mouse AML cells expressing B3-FL or B3delICD in the presence of IgG or anti-LILRB3 #1 N297A (n=3 independent experiments) (FIG. 7G) Upper: Schematic of treatment. Recipient mice were injected with mouse IgG or anti-mCD8 to deplete CD8 T cells. Lower: Percentages of GFP^+ MLL-AF9 mouse AML cells in peripheral blood (PB), bone marrow (BM), spleen (SPL), and liver (LV) of mice transplanted with AML cells expressing B3-FL or B3delICD and injected with IgG or anti-LILRB3 #1 LALAPG (n=4 mice). […] The data are presented as mean±s.e.m, and p values were calculated by two-tailed t-test except for FIG. 7E, FIG. 7H, FIG. 7J and FIG. 7M by log-rank test. […]

Molm13 AML cells = experiment: NSG mice with Molm13 AML cells and activated human T cells
From the text: FIGS. 7A-N. Blocking anti-LILRB3 antibody prevents monocytic AML development. (FIG. 7A) Epitope binning of 30 high-affinity IgGs. (FIG. 7B) CFU assay of mouse MLL-AF9 AML cells in the presence of above IgGs (n=3 independent experiments). (FIG. 7C) Binding affinities of the two IgGs from bin #3. (FIG. 7D) Upper: Schematic of treatment. Lower: Percentages of GFP^+ MLL-AF9 mouse AIL cells in peripheral blood (PB), bone marrow (BM), spleen (SPL), and liver (LV) of mice transplanted with AML cells expressing B3-FL or B3delICD and injected with IgG or anti-LILRB3 #1 N297A (n=3 independent mice). (FIG. 7E) Overall survival of mice transplanted with indicated AML cells as above. (FIG. 7F) CFU assay of MLL-AF9 mouse AML cells expressing B3-FL or B3delICD in the presence of IgG or anti-LILRB3 #1 N297A (n=3 independent experiments) (FIG. 7G) Upper: Schematic of treatment. Recipient mice were injected with mouse IgG or anti-mCD8 to deplete CD8 T cells. Lower: Percentages of GFP^+ MLL-AF9 mouse AML cells in peripheral blood (PB), bone marrow (BM), spleen (SPL), and liver (LV) of mice transplanted with AML cells expressing B3-FL or B3delICD and injected with IgG or anti-LILRB3 #1 LALAPG (n=4 mice). (FIG. 7H) Survival of mice as in panel h (n=4 independent mice). (FIG. 7I) Upper: Schematic of treatment. Lower: Whole-body images of NSG mice transplanted with luciferase-expressing THP-1 cells and treated with IgG or anti-LILRB3 #1 N297A (#1NA). (FIG. 7J) Overall survival of the mice shown in panel h (n=3 independent mice). (FIG. 7K) Upper: Schematic of treatment. Lower: Whole-body images of NSG mice transplanted with luciferase-expressing Molm13 cells, injected with activated T cells, and treated with IgG or #1NA. (FIG. 7L) Luciferase signaling as a function of time in mice treated as described in panel k. (FIG. 7M) Overall survival of mice treated as described in panel k (n=3 independent mice). (FIG. 7N) Analyses of T cells in peripheral blood of mice treated as described in panel 1 at 22 days after Molm13 AML cell transplantation. Upper: Flow cytometry analyses. Lower: Plot of T cell percentages (n=3 independent mice). The data are presented as mean±s.e.m, and p values were calculated by two-tailed t-test except for FIG. 7E, FIG. 7H, FIG. 7J and FIG. 7M by log-rank test.
Mice. C57BL/6J and NOD-SCID IL2Rγ-null (NSG) mice were purchased from and maintained at the animal core facility of the University of Texas Southwestern Medical Center. GFP-specific TCR mice (Jedi mice, JAX lab stock No: 028062) were purchased from the Jackson Lab. C57BL/6J CD45.1 mice were injected intraperitoneally with 1×10^6 irradiated MLL-AF9 mouse AML cells (3000 cGy) and LPS or LPS alone as a control. The injection was repeated 10 days later. […]

B1: anti-LILRB3 #1 N297A: IgG #1 with Fc glycosylation N297A mutation, defective Fc-mediated effector functions (antibody, V domains shown)
VH: EVQLVESGGGVVQPGRSLRLSCAASGFTFSSYGMHWVRQAPGKGLEWVAFIRYDGSNKYYADSVKGRFTISRDNSKNTLYLQMNSLRAEDTAVYYCAKAGFSGWYYYGMDVWGQGTMVTVSS
VL: DIVMTQSPSSLSASVGDRLTITCRASQSISTYLNWYQQKPGKAPKLLIYGASSLQSGVPSRFSGSGSGTDFTLTISSLQPEDFATYFCQQSYGLPLTFGGGTKVDIK
[1]; NSG mice
  percentages of human autologous T cells: increased the percentages of human autologous T cells
[1]; versus IgG
  AML burden in peripheral blood, bone marrow, spleen, and liver: significantly lower AML burden
[1]; versus control IgG
  survival: significant survival advantage
THP-1 cells; NSG mice, THP-1 xenograft, versus controls
  leukemia development: significantly delayed leukemia development
THP-1 cells; THP-1 cells from BM of xenografted NSG mice
  LILRB3 signaling in THP-1 cells (NF-κB target gene expression by qPCR): decreased
Molm13 AML cells; no T cells
  effect on mice without the injection of T cells: little effect
Molm13 AML cells; peripheral blood, 22 days after Molm13 transplantation, versus IgG
  T cells in treated mice: significantly more T cells
Molm13 AML cells; with activated human T cells
  leukemia in one of the treated mice: largely eliminated
Molm13 AML cells; with activated human T cells, antibody at day 8, versus IgG
  leukemia progression: significantly slower
